Reference: IntAct's records for PubMed 20850366

B1: Small glutamine-rich tetratricopeptide repeat-containing protein 2 (Saccharomyces cerevisiae), Q12118 (parent)
chain: MSASKEEIAALIVNYFSSIVEKKEISEDGADSLNVAMDCISEAFGFEREAVSGILGKSEFKGQHLADILNSASRVPESNKKDDAENVEINIPEDDAETKAKAEDLKMQGNKAMANKDYELAINKYTEAIKVLPTNAIYYANRAAAHSSLKEYDQAVKDAESAISIDPSYFRGYSRLGFAKYAQGKPEEALEAYKKVLDIEGDNATEAMKRDYESAKKKVEQSLNLEKTVPEQSRDADVDASQGASAGGLPDLGSLLGGGLGGLMNNPQLMQAAQKMMSNPGAMQNIQKMMQDPSIRQMAEGFASGGGTPNLSDLMNNPALRNMAGNLFGGAGAQSTDETPDNENKQ
partner: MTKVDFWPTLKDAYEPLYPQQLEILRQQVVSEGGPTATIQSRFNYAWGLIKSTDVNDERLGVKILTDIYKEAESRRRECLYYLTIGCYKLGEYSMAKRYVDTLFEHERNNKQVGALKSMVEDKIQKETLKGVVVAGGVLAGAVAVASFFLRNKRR
B2: Small glutamine-rich tetratricopeptide repeat-containing protein 2 (Saccharomyces cerevisiae), Q12118 (parent)
chain: B1 chain
B3: Mitochondrial fission 1 protein (Saccharomyces cerevisiae), P40515 (parent)
chain: B1 partner
partner: B1 chain

Variants of: B1
Conditions: with fis1_yeast FIS1, P40515

Row | effect of a mutation on the interaction | Variant
1 | with no effect | R171A;R175A

Variants of: B2
Conditions: with sec22_yeast SEC22, P22214
sec22_yeast SEC22, P22214, sequence (P22214 whole entry): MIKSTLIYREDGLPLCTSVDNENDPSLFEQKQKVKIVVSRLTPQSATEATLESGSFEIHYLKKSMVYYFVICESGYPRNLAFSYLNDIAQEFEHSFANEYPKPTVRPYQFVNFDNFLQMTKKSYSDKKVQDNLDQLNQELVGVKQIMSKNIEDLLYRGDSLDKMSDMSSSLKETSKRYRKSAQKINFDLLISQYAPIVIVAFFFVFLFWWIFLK

Row | effect of a mutation on the interaction | Variant
2 | with no effect | R171A;R175A

Variants of: B3
Conditions: with sgt2_yeast SGT2, Q12118

Row | effect of a mutation on the interaction | Variant
3 | increasing interaction strength | G136L;G137L;G141L;A142L
